B1: HEG1 full length: full length human HEG1 protein, SEQ ID NO: 35, expressed in mesothelioma cell line (protein, listed as Homo sapiens)
chain: MASPRASRWPPPLLLLLLPLLLLPPAAPGTRDPPPSPARRALSLAPLAGAGLELQLERRPEREPPPTPPRERRGPATPGPSYRAPEPGAATQRGPSGRAPRGGSADAAWKHWPESNTEAHVENITFYQNQEDFSTVSSKEGVMVQTSGKSHAASDAPENLTLLAETADARGRSGSSSRTNFTILPVGYSLEIATALTSQSGNLASESLHLPSSSSEFDERIAAFQTKSGTASEMGTERAMGLSEEWTVHSQEATTSAWSPSFLPALEMGELTTPSRKRNSSGPDLSWLHFYRTAASSPLLDLSSSSESTEKLNNSTGLQSSSVSQTKTMHVATVFTDGGPRTLRSLTVSLGPVSKTEGFPKDSRIATTSSSVLLSPSAVESRRNSRVTGNPGDEEFIEPSTENEFGLTSLRWQNDSPTFGEHQLASSSEVQNGSPMSQTETVSRSVAPMRGGEITAHWLLTNSTTSADVTGSSASYPEGVNASVLTQFSDSTVQSGGSHTALGDRSYSESSSTSSSESLNSSAPRGERSIAGISYGQVRGTAIEQRTSSDHTDHTYLSSTFTKGERALLSITDNSSSSDIVESSTSYIKISNSSHSEYSSFFHAQTERSNISSYDGEYAQPSTESPVLHTSNLPSYTPTINMPNTSVVLDTDAEFVSDSSSSSSSSSSSSSSSSSSSSGPPLPLPSVSQSHHLFSSILPSTRASVHLLKSTSDASTPWSSSPSPLPVSLTTSTSAPLSVSQTTLPQSSSTPVLPRARETPVTSFQTSTMTSFMTMLHSSQTADLKSQSTPHQEKVITESKSPSLVSLPTESTKAVTTNSPLPPSLTESSTEQTLPATSTNLAQMSPTFTTTILKTSQPLMTTPGTLSSTASLVTGPIAVQTTAGKQLSLTHPEILVPQISTEGGISTERNRVIVDATSGLIPLTSVPTSAKEMTTKLGVTAEYSPASRSLGTSPSPQTTVVSTAEDLAPKSATFAVQSSTQSPTTLSSSASVNSCAVNPCLHNGECVADNTSRGYHCRCPPSWQGDDCSVDVNECLSNPCPSTAMCNNTQGSFICKCPVGYQLEKGICNLVRTFVTEFKLKRTFLNTTVEKHSDLQEVENEITKTLNMCFSALPSYIRSTVHASRESNAVVISLQTTFSLASNVTLFDLADRMQKCVNSCKSSAEVCQLLGSQRRIFRAGSLCKRKSPECDKDTSICTDLDGVALCQCKSGYFQFNKMDHSCRACEDGYRLENETCMSCPFGLGGLNCGNPYQLITVVIAAAGGGLLLILGIALIVTCCRKNKNDISKLIFKSGDFQMSPYAEYPKNPRSQEWGREAIEMHENGSTKNLLQMTDVYYSPTSVRNPELERNGLYPAYTGLPGSRHSCIFPGQYNPSFISDESRRRDYF
B2: HEG1 3 kb: HEG1 fragment, position 285 leucine to position 1387 phenylalanine of SEQ ID NO: 35 (protein, listed as Homo sapiens)
chain: LSWLHFYRTAASSPLLDLSSSSESTEKLNNSTGLQSSSVSQTKTMHVATVFTDGGPRTLRSLTVSLGPVSKTEGFPKDSRIATTSSSVLLSPSAVESRRNSRVTGNPGDEEFIEPSTENEFGLTSLRWQNDSPTFGEHQLASSSEVQNGSPMSQTETVSRSVAPMRGGEITAHWLLTNSTTSADVTGSSASYPEGVNASVLTQFSDSTVQSGGSHTALGDRSYSESSSTSSSESLNSSAPRGERSIAGISYGQVRGTAIEQRTSSDHTDHTYLSSTFTKGERALLSITDNSSSSDIVESSTSYIKISNSSHSEYSSFFHAQTERSNISSYDGEYAQPSTESPVLHTSNLPSYTPTINMPNTSVVLDTDAEFVSDSSSSSSSSSSSSSSSSSSSSGPPLPLPSVSQSHHLFSSILPSTRASVHLLKSTSDASTPWSSSPSPLPVSLTTSTSAPLSVSQTTLPQSSSTPVLPRARETPVTSFQTSTMTSFMTMLHSSQTADLKSQSTPHQEKVITESKSPSLVSLPTESTKAVTTNSPLPPSLTESSTEQTLPATSTNLAQMSPTFTTTILKTSQPLMTTPGTLSSTASLVTGPIAVQTTAGKQLSLTHPEILVPQISTEGGISTERNRVIVDATSGLIPLTSVPTSAKEMTTKLGVTAEYSPASRSLGTSPSPQTTVVSTAEDLAPKSATFAVQSSTQSPTTLSSSASVNSCAVNPCLHNGECVADNTSRGYHCRCPPSWQGDDCSVDVNECLSNPCPSTAMCNNTQGSFICKCPVGYQLEKGICNLVRTFVTEFKLKRTFLNTTVEKHSDLQEVENEITKTLNMCFSALPSYIRSTVHASRESNAVVISLQTTFSLASNVTLFDLADRMQKCVNSCKSSAEVCQLLGSQRRIFRAGSLCKRKSPECDKDTSICTDLDGVALCQCKSGYFQFNKMDHSCRACEDGYRLENETCMSCPFGLGGLNCGNPYQLITVVIAAAGGGLLLILGIALIVTCCRKNKNDISKLIFKSGDFQMSPYAEYPKNPRSQEWGREAIEMHENGSTKNLLQMTDVYYSPTSVRNPELERNGLYPAYTGLPGSRHSCIFPGQYNPSFISDESRRRDYF
B3: HEG1 1 kb: HEG1 fragment, position 992 valine to position 1387 phenylalanine of SEQ ID NO: 35 (protein, listed as Homo sapiens)
chain: VNSCAVNPCLHNGECVADNTSRGYHCRCPPSWQGDDCSVDVNECLSNPCPSTAMCNNTQGSFICKCPVGYQLEKGICNLVRTFVTEFKLKRTFLNTTVEKHSDLQEVENEITKTLNMCFSALPSYIRSTVHASRESNAVVISLQTTFSLASNVTLFDLADRMQKCVNSCKSSAEVCQLLGSQRRIFRAGSLCKRKSPECDKDTSICTDLDGVALCQCKSGYFQFNKMDHSCRACEDGYRLENETCMSCPFGLGGLNCGNPYQLITVVIAAAGGGLLLILGIALIVTCCRKNKNDISKLIFKSGDFQMSPYAEYPKNPRSQEWGREAIEMHENGSTKNLLQMTDVYYSPTSVRNPELERNGLYPAYTGLPGSRHSCIFPGQYNPSFISDESRRRDYF
B4: HEG1 2 kb: HEG1 fragment, position 677 leucine to position 1387 phenylalanine of SEQ ID NO: 35 (protein, listed as Homo sapiens)
chain: SSGPPLPLPSVSQSHHLFSSILPSTRASVHLLKSTSDASTPWSSSPSPLPVSLTTSTSAPLSVSQTTLPQSSSTPVLPRARETPVTSFQTSTMTSFMTMLHSSQTADLKSQSTPHQEKVITESKSPSLVSLPTESTKAVTTNSPLPPSLTESSTEQTLPATSTNLAQMSPTFTTTILKTSQPLMTTPGTLSSTASLVTGPIAVQTTAGKQLSLTHPEILVPQISTEGGISTERNRVIVDATSGLIPLTSVPTSAKEMTTKLGVTAEYSPASRSLGTSPSPQTTVVSTAEDLAPKSATFAVQSSTQSPTTLSSSASVNSCAVNPCLHNGECVADNTSRGYHCRCPPSWQGDDCSVDVNECLSNPCPSTAMCNNTQGSFICKCPVGYQLEKGICNLVRTFVTEFKLKRTFLNTTVEKHSDLQEVENEITKTLNMCFSALPSYIRSTVHASRESNAVVISLQTTFSLASNVTLFDLADRMQKCVNSCKSSAEVCQLLGSQRRIFRAGSLCKRKSPECDKDTSICTDLDGVALCQCKSGYFQFNKMDHSCRACEDGYRLENETCMSCPFGLGGLNCGNPYQLITVVIAAAGGGLLLILGIALIVTCCRKNKNDISKLIFKSGDFQMSPYAEYPKNPRSQEWGREAIEMHENGSTKNLLQMTDVYYSPTSVRNPELERNGLYPAYTGLPGSRHSCIFPGQYNPSFISDESRRRDYF
B5: 7.6: HEG1 exon 7 fragment from amino acid No. 783 bonded to SLURPgpi; SEQ ID NO: 66 in FIG. 13 (protein)
chain: DLKSQSTPHQEKVITESKSPSLVSLPTESTKAVTTNSPLPPSLTESSTEQTLPATSTNLAQMSPTFTTTILKTSQPLMTTPGTLSSTASLVTGPIAVQTTAGKQLSLTHPEILVPQISTEGGISTERNRVIVDATSGLIPLTSVPTSAKEMTTKLGVTAEYSPASRSLGTSPSPQTTVVSTAEDLAPKSATFAVQSSTQSPTTLSSSASGSLKCYTCKEPMTSASCRTITRCKPEDTACMTTLVTVEAEYPFNQSPVVTRSCSSSCVATDPDSIGAAHLIFCCFRDLCNSELSRDGAPSLGSPGGLLLALALFLLLGVLL

The molecules below were run on SKM9-2 antibody (assay: Western blot reactivity of human HEG1 fragments expressed in ACC-MESO-1 with SKM9-2 antibody). Details: Western blot of cell lysate.
Assay type: binding, mouse
Method: In this Example, the mesothelioma cell line ACC-MESO-1 was allowed to express a human HEG1 fragment with the endogenous HEG1 of ACC-MESO-1 knocked down, and the reactivity with the SKM9-2 antibody was examined. Subsequently, the reactivity with the antibody was tested for the epitope region through alanine scanning, and key amino acids for binding to the antibody were determined.
Gene transfer was performed with HEG1 siRNA (H9106) (SEQ ID NOs: 40, 41) and human HEG1 for the mesothelioma cell line ACC-MESO-1, and the reactivity of the SKM9-2 was examined through Western blot analysis. A full length protein (HEG1 full length) or a fragment (HEG1 3 kb, HEG1 2 kb, or HEG1 1 kb) of the human HEG1 was used. The full length human HEG1 protein, a protein having the amino acid sequence set forth in SEQ ID NO: 35, was obtained through inserting a base sequence set forth in SEQ ID NO: 34 into pFLAG-CMV1 (Sigma-Aldrich Japan K.K.) to obtain a plasmid, transforming the plasmid, and allowing the mesothelioma cell line to express the plasmid. Fragment HEG1 3 kb was obtained through inserting a fragment corresponding to a sequence from position 285, leucine, to position 1387, phenylalanine, of SEQ ID NO: 35 into pFLAG-CMV1 (Sigma-Aldrich Japan K.K.) in an in-frame manner, and allowing the mesothelioma cell line to express the resultant. HEG1 2 kb and HEG1 1 kb were obtained through allowing the mesothelioma cell line to express products similarly obtained from a fragment corresponding to a sequence from position 677, leucine, to position 1387, phenylalanine, of SEQ ID NO: 35 and a fragment corresponding to a sequence from position 992, valine, to position 1387, phenylalanine, of SEQ ID NO: 35, respectively. Each cell lysate was analyzed through Western blot with the SKM9-2 antibody.
Further, the region in exon 7 of HEG1 was analyzed in detail. The amino acid sequence of a part of exon 7 of HEG1 was connected to the N-terminal side of a protein obtained by connecting a GPI anchor signal to human SLURP1 (SEQ ID NO: 42; hereinafter referred to as “SLURPgpi”) to produce a fusion protein, and the reactivity of the SKM9-2 was examined through Western blot analysis with the fusion protein. A signal sequence (SEQ ID NO: 43) was added to the N-terminal of the fusion protein before expression.
Used fusion proteins of a partial sequence of exon 7 of HEG1 and SLURPgpi were as follows: • a fragment obtained by bonding a fragment from amino acid No. 783, aspartic acid, to amino acid No. 991, serine, to SLURPgpi (7.6); • a fragment obtained by bonding a fragment from amino acid No. 832, glutamine, to amino acid No. 991, serine, to SLURPgpi (7.7); • a fragment obtained by bonding a fragment from amino acid No. 886, glutamine, to amino acid No. 991, serine, to SLURPgpi (7.8); • a fragment obtained by bonding a fragment from amino acid No. 941, alanine, to amino acid No. 991, serine, to SLURPgpi (7.9); • a fragment obtained by bonding SEQ ID NO: 44 to SLURPgpi (7.61); • a fragment obtained by bonding SEQ ID NO: 45 to SLURPgpi (7.62); • a fragment obtained by bonding SEQ ID NO: 46 to SLURPgpi (7.63); • a fragment obtained by bonding SEQ ID NO: 47 to SLURPgpi (7.64); • a fragment obtained by bonding SEQ ID NO: 48 to SLURPgpi (7.623); • a fragment obtained by bonding SEQ ID NO: 49 to SLURPgpi (7.6231); • a fragment obtained by bonding SEQ ID NO: 50 to SLURPgpi (7.6232); • a fragment obtained by bonding SEQ ID NO: 51 to SLURPgpi (7.6241); and • a fragment obtained by bonding SEQ ID NO: 52 to SLURPgpi (7.6242).

| Molecule | Binding to SKM9-2 antibody (positive/negative) |
| --- | --- |
| B1 | positive |
| B2 | positive |
| B3 | negative |
| B4 | positive |
| B5 | positive |

Same assay, conditions: Western blot of cell lysate; listed as fragment 7.6

| Molecule | Binding to SKM9-2 antibody (positive/negative) |
| --- | --- |
| B5 | positive signal |

Reference: patent publication US12123876B2, “Antibody binding to HEG1 and use of the antibody for detection and treatment of mesothelioma” (Kanagawa Prefectural Hospital Organization, priority 2016, dated 2024)
